Data published in the DeepSol protein solubility set.

Assay: soluble on expression in E. coli; label from the status in PepcDB or PDB records

With “MDLLDKVMGEMGSKPGSTAKKPATSASSTPRTNVWGTAKKPSSQQQPPKPLFTTPGSQQGSLGGRIPKREHTDRTGPDPKRKPLGGLSVPDSFNNFGTFRVQMNAWNLDISKMDERISRIMFRATLVHTDGRRFELSLGVSAFSGDVNRQQRRQAQCLLFRAWFKRNPELFKGMTDPAIAAYDAAETIYVGCSFFDVELTEHVCHLTEADFSPQEWKIVSLISRRSGSTFEIRIKTNPPIYTRGPNALTLENRSELTRIIEAITDQCLHNEKFLLYSSGTFPTKGGDIASPDEVTLIKSGFVKTTKIVDRDGVPDAIMTVDTTKSPFYKDTSLLKFFTAKMDQLTNSGGGPRGHNGGRERRDGGGNSRKYDDRRSPRDGEIDYDERTVSHYQRQFQDERISDGMLNTLKQSLKGLDCQPIHLKDSKANRSIMIDEIHTGTADSVTFEQKLPDGEMKLTSITEYYLQRYNYRLKFPHLPLVTSKRAKCYDFYPMELMSILPGQRIKQSHMTVDIQSYMTGKMSSLPDQHIKQSKLVLTEYLKLGDQPANRQMDAFRVSLKSIQPIVTNAHWLSPPDMKFANNQLYSLNPTRGVRFQTNGKFVMPARVKSVTIINYDKEFNRNVDMFAEGLAKHCSEQGMKFDSRPNSWKKVNLGSSDRRGTKVEIEEAIRNGVTIVFGIIAEKRPDMHDILKYFEEKLGQQTIQISSETADKFMRDHGGKQTIDNVIRKLNPKCGGTNFLIDVPESVGHRVVCNNSAEMRAKLYAKTQFIGFEMSHTGARTRFDIQKVMFDGDPTVVGVAYSLKHSAQLGGFSYFQESRLHKLTNLQEKMQICLNAYEQSSSYLPETVVVYRVGSGEGDYPQIVNEVNEMKLAARKKKHGYNPKFLVICTQRNSHIRVFPEHINERGKSMEQNVKSGTCVDVPGASHGYEEFILCCQTPLIGTVKPTKYTIIVNDCRWSKNEIMNVTYHLAFAHQVSYAPPAIPNVSYAAQNLAKRGHNNYKTHTKLVDMNDYSYRIKEKHEEIISSEEVDDILMRDFIETVSNDLNAMTINGRNFWA” as the sequence, how does the “soluble on expression in E. coli” value read?
Its value is “not soluble”.

Which “soluble on expression in E. coli” value does the source give for “MIATYNTNVGDVLMLITANDKGEKVNFERKGKVARVFIEETGATVAWNIFEAKSLLANLSGNGQVVLSSDDIETLNKELGKSGFSDVLVHDAQPKFVVAEIVEMEDHPDSDHLHICKVNVGFADPVQIVCGAPNAALGLKTVAALPGAMMPNGSLIFPGALRGVQSYGMLCSARELELPNAPEVRGIIELSSDLSAGKAFDSETMWQALEHHHHHH” here?
The value was “soluble”.

For “MHHHHHHMVGFGELKEEWRGEVVHLSWSPRAFLLKNFLSDEECDYIVEKARPKMVKSSVVDNESGKSVDSEIRTSTGTWFAKGEDSVISKIEKRVAQVTMIPLENHEGLQVLHYHDGQKYEPHYDYFHDPVNAGPEHGGQRVVTMLMYLTTVEEGGETVLPNAEQKVTGDGWSECAKRGLAVKPIKGDALMFYSLKPDGSNDPASLHGSCPTLKGDKWSATKWIHVAPIGGRH”, which “soluble on expression in E. coli” value is on record?
Its value is “soluble”.

For “DVETCRDERCYRLWINSLGIDSYVNNVFEDVRNGWILLEVLDKVSPSSVNWKHASKPPIKMPFRKVENCNQVIKIGKQLKFSLVNVAGNDIVQGNKKLILGLLWQLMRFHMLQLLKSLRSEMTDADILSWANRKVRTMGRKLQIESFKDKSLSSGLFFLNLLWAVEPRVVNWNLVTKGETDDEKRLNATYIVSVARKLGCSVFLLPEDIVEVNQKMILILTASIMYWSLQR”, which “soluble on expression in E. coli” value is on record?
Its value is “soluble”.

Which “soluble on expression in E. coli” value does the source give for “MSLRRVFMKQIEGGICAVRGVSAYGIKPGKMGIAVIRAEGPAAGVFTRNKVVAAPVTLSRERIETEHRLSAVIANSGNANAFTGDDGFLDAMEMASMVAENLGLDPDNVAVASTGVIGRRLDVSFIKEHLPEVLEGLGSSPECSRAAAKAIMTTDRALKESAVELDCGVRIGAIAKGSGMIEPNMGTMLCFAYTDAKVPADVLDAALKIAVDKTFNMVVVDGDTSTNDMVLFTSTCKSGVKPCLDCLDDFEEGLVCVFTDLAKKMAKDGEGATKLIEARVTGAKKYEDARLVAKTIVRSPLVKSAIFGKDPNWGRVVAAAGYSGAELEQERLTLSFSGGGEEVELVKAGEISTASDLSLLKKIMANDEIIINLDLAMGEESATAWGCDLTYDYVRINAEYTTLEHHHHHH” here?
The value was “not soluble”.

For “MAHHHHHHMVMNDITKSDTHERKDEVTMDKGGMFNNFFECMNEQMKRIDRYHEDMSRMMNSMRTHYFSDELSKYFPSRRSLLDYDLGDARRNDLFFGKPQFLMDRFKNVPPMDVVDKDKEIEIKIDVPGLSKDNVQINLYNRNLEVSGDFKKTEETRDDEQRYYVKERSQTSFYRSFQLPENVCEDNIKATFKDGVLKIDIPKKDVLPEKKKKIEIQ”, which “soluble on expression in E. coli” value is on record?
Its value is “soluble”.

Which “soluble on expression in E. coli” value does the source give for “SQRGVLEDEQMYQRCCNLFEKFFPSSSYRRPVGISSMVEAMVSRARIDARIDFESGRIKKEEFTEIMKICSTIEELRRQK” here?
Its value is “soluble”.
